Source: publication PMC4756836 (Nucleic Acids Research, 2015)

Target: the molecule itself
Assay: crystal structure

B1: yeast mitochondrial threonyl-tRNA synthetase MST1 (enzyme, S. cerevisiae)
chain: QDLFMTDPLSPGSMFFLPNGAKIFNKLIEFMKLQQKFKFGFNEVVTPLIYKKTLWEKSGHWENYADDMFKVETTDEEKEEYGLKPMNCPGHCLIFGKKDRSYNELPLRFSDFSPLHRNEASGALSGLTRLRKFHQDDGHIFCTPSQVKSEIFNSLKLIDIVYNKIFPFVKGGSGAESNYFINFSTRPDHFIGDLKVWNHAEQVLKEILEESGKPWKLNPGDGAFYGPKLDIMVTDHLRKTHQVATIQLDFQLPERFDLKFKDQDNSYKRPIMIHRATFGSIERFMALLIDSNEGRWPFWLNPYQAVIIPVNTKNVQQLDMCTALQKKLRNELEADDMEPVPLNDWHFNVDLDIRNEPVGYRIKSAILKNYSYLIIVGDEEVQLQKYNIRERDNRKSFEKLTMSQIWEKFIELEKNYK
Question: For B1, which “stoichiometry N” value is on record?
Answer: 2
